Experimental findings from paper PMC2819549 are described below.

The term Kd denotes the concentration at which binding is half-saturated. Lower therefore signals a tighter complex. The stoichiometry N is the number of molecules, sites or subunits per partner or assembly.

Read-outs that look alike come from different tables or passages of the source.

The target in assay [1] is human cytochrome P450 3A4 (CYP3A4), wild type, His-tagged (human) (UniProt P08684). Nature of the assay: UV-Vis absorbance.
The target is the same in assay [2].
The target is the same in assay [3]. Briefly: UV-Vis absorbance. This is another data set of the same source.
Assay [4] shares this target. Briefly: UV-Vis absorbance. The source holds these as a separate data set.

In assay [1], “flavin domain of cytochrome P450BM-3 from Bacillus megaterium (BMR) (domain or fragment)” had a Kd of 140 nM and a stoichiometry N of 1. In assay [2], this substance came in with a total reducibility of CYP3A4 by BMR; CYP3A4-ND, with 1-PB of 91%; a total reducibility of CYP3A4 by BMR; CYP3A4-ND, with ANF of 79%; a total reducibility of CYP3A4 by BMR; proteoliposomes LPS-76, no substrate of 55%; a total reducibility of CYP3A4 by BMR; proteoliposomes LPS-76, with ANF of 47%. In assay [2], this substance returned a total reducibility of CYP3A4 by BMR; proteoliposomes LPS-910, no substrate of 83% and a total reducibility of CYP3A4 by BMR; proteoliposomes LPS-910, with ANF of 85%. Also, the stoichiometry N in assay [3] came to 1. The same substance showed a Kd in assay [4] of 100 nM.
